Test results published in US20240029819A1, “AGENTS BINDING MODIFIED ANTIGEN PRESENTED PEPTIDES AND USE OF SAME” (Yeda Research and Development Co. Ltd., priority 2020, published 2024).
Entries after “also recorded” stand apart in the source; their conditions may differ. Where no end group is shown, it is not given here. [ ]: non-standard residue; d: D form. N(d) = deamidated Asn

Target: HLA-A0201 (Homo sapiens, UniProt P04439, D140Y/D185E/D98H/E176V/E277Q/G131W/G231S/I119V/I121R/I166T/I218V/L300P/L318F/N151K/N90K/P208A/P217A/Q86G/Q94H/R138H/R169H/T345S)
Experiment: ProImmune Module 2 REVEAL in-vitro MHC-peptide binding assay
Details: synthesized modified peptides and unmodified counterparts; score relative to positive control peptide; FIG. 4F
Method: ProImmune binding assay—ProImmune (www(dot)proimmune(dot)com) Module 2 REVEAL Binding Assay measure the yield of correctly conformed MHC-peptide complex following incubation of the recombinant MHC allele and peptide of interest using a conformational-dependent antibody in an immunoassay. Each peptide is given a score relative to the positive control peptide, which is a known T cell epitope.
To validate that the modified peptides identified with PROMISE are able to bind to HLA, the subset of modified peptides that were identified in immunopeptidomics of an HLA-A0201 cell line and that were not identified in IEDB in their unmodified form were filtered (FIG. 4D). Further, whether the difference in the detection of the modified peptides and their unmodified counterparts was due to their relative ability to bind HLA-A0201 was examined. […] Methylation of K-6 removes its positive charge and thereby alleviates electrostatic repulsion. In addition, the methyl group is nicely packed into the hydrophobic MHC groove. […] To assess the role of peptide modification in altering MHC binding 6 modified peptides and their unmodified counterparts were synthesized and their binding was examined using a binding assay (ProImmune). In these setting 4 of the synthesized modified peptides were confirmed as HLA binders.

| Substance | binding to HLA-A0201 of the modified peptide compared with its matching unmodified form |
| --- | --- |
| TLIESK(me)LPV (TLIESKLPV; not fully specified (residue 6); printed as TLIESK(me)LPV) | bind more strongly in its modified form; also recorded: bind the HLA-A0201 more strongly than the unmodified form |
| TLE(me)NCLLPD(me) (TLENCLLPD; not fully specified (residues 3, 9); printed as TLE(me)NCLLPD(me)) | bound the MHC only in its modified form |
| K(me)VMDEVAGI (KVMDEVAGI; not fully specified (residue 1); printed as K(me)VMDEVAGI) | bind the HLA-A0201 more strongly than the unmodified form |
| TLN(d)SLIYTL (TL[N(d)]SLIYTL) | bind more strongly in its unmodified form |
